The supplement of paper PMC7877785
± gives the uncertainty stated by the source.

Experiment: self-splicing fitness, log relative to wild type (ln ratio); higher = more splicing; Tetrahymena group I intron in knt gene, E. coli kanamycin selection, DiMSum; sequences stand for … in CUCUCU…GGAGGGAAAAGUUAUCAGGCAUGCACCUGGUAGCUAGUCUUUAAACCAAUAGAUUGCAUCGGUUUAAAAGGCAAGACCGUCAAAUUGCGGGAAAGGGGUCAACAGCCGUUCAGUACCAAGUCUCAGGGGAAACUUUGAGAUGGCCUUGCAAAGGGUAUGGUAAUAAGCUGACGGACAUGGUCCUAACCACGCAGCCAAGUCCUAAGUCAACAGAUCUUCUGUUGAUAUGGAUGCAGUUCACAGACUAAAUGUCGGUCGGGGAAGAUGUAUUCUUCUCAUAAGAUAUAGUCGGACCUCUCCUUAAUGGGAGCUAGCGGAUGAAGUGAUGCAACACUGGAGCCGCUGGGAACUAAUUUGUAUGCGAAAGUAUAUUGAUUAGUUUUGGAGUACUCGUGGUCG
Procedure, shortened: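 Six replicate transformations of E. coli BL21(DE3) with a pET-22b(+) library were grown overnight at 37°C or 30°C. The library randomised all eight P1ex-region intron nucleotides, the intron lying in the knt kanamycin-resistance gene, and plates were LB agar with or without 25 μg/mL kanamycin plus 100 μg/mL carbenicillin, 50 μM IPTG and 0.2% rhamnose. Pooled colonies were amplicon-sequenced on an Illumina HiSeq 2500, and fitness is the DiMSum error-weighted combination of wild-type-normalised replicate fold changes, kanamycin versus none.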

Sequence: CAUAAGCAAUAUUACGUAGG
- self-splicing fitness (ln) (30 °C): -0.808 ± 0.066
- self-splicing fitness (ln) (37 °C): -0.719 ± 0.084

Sequence: UUAGAGCAAUAUUACGUACA
- self-splicing fitness (ln) (30 °C): -1.7 ± 0.26
- self-splicing fitness (ln) (37 °C): -1.51 ± 0.33

Sequence: CGAUAGCAAUAUUACGGCGC
- self-splicing fitness (ln) (30 °C): -1.21 ± 0.15
- self-splicing fitness (ln) (37 °C): -0.875 ± 0.26

Sequence: AGCCAGCAAUAUUACGCGUG
- self-splicing fitness (ln) (30 °C): -1.91 ± 0.089
- self-splicing fitness (ln) (37 °C): -1.35 ± 0.092

Sequence: AACAAGCAAUAUUACGUCUU
- self-splicing fitness (ln) (30 °C): -0.312 ± 0.057
- self-splicing fitness (ln) (37 °C): 0.0818 ± 0.077

Sequence: UGGAAGCAAUAUUACGUCUG
- self-splicing fitness (ln) (30 °C): -2.56 ± 0.25
- self-splicing fitness (ln) (37 °C): -1.52 ± 0.2

Sequence: AGAAAGCAAUAUUACGCGAA
- self-splicing fitness (ln) (30 °C): -1.95 ± 0.13
- self-splicing fitness (ln) (37 °C): -1.08 ± 0.16

Sequence: UCAUAGCAAUAUUACGGGAC
- self-splicing fitness (ln) (30 °C): -2.96 ± 0.27
- self-splicing fitness (ln) (37 °C): -3.97 ± 0.39

Sequence: GAUCAGCAAUAUUACGCGAG
- self-splicing fitness (ln) (30 °C): -0.684 ± 0.07
- self-splicing fitness (ln) (37 °C): -1.15 ± 0.073

Sequence: GCAGAGCAAUAUUACGCCUU
- self-splicing fitness (ln) (37 °C): -2.46 ± 0.33

Sequence: UAUAAGCAAUAUUACGCUAU
- self-splicing fitness (ln) (30 °C): -3.91 ± 0.28
- self-splicing fitness (ln) (37 °C): -1.92 ± 0.18

Sequence: CUCAAGCAAUAUUACGGUCU
- self-splicing fitness (ln) (30 °C): -3.13 ± 0.16
- self-splicing fitness (ln) (37 °C): -3.56 ± 0.39

Sequence: AGAGAGCAAUAUUACGCGAG
- self-splicing fitness (ln) (30 °C): -2.97 ± 0.34

Sequence: GUUAAGCAAUAUUACGAGUU
- self-splicing fitness (ln) (30 °C): -1.36 ± 0.11
- self-splicing fitness (ln) (37 °C): -0.688 ± 0.14

Sequence: GACCAGCAAUAUUACGGCAA
- self-splicing fitness (ln) (30 °C): -0.359 ± 0.067
- self-splicing fitness (ln) (37 °C): -0.32 ± 0.078

Sequence: CUUCAGCAAUAUUACGGUCG
- self-splicing fitness (ln) (30 °C): -0.131 ± 0.062
- self-splicing fitness (ln) (37 °C): -0.155 ± 0.093

Sequence: UCGAAGCAAUAUUACGGAUG
- self-splicing fitness (ln) (30 °C): -2.8 ± 0.13
- self-splicing fitness (ln) (37 °C): -1.68 ± 0.11

Sequence: AGUGAGCAAUAUUACGCUCU
- self-splicing fitness (ln) (37 °C): -2.1 ± 0.34

Sequence: UCUGAGCAAUAUUACGUCUG
- self-splicing fitness (ln) (30 °C): -1.01 ± 0.11
- self-splicing fitness (ln) (37 °C): -1.4 ± 0.14

Sequence: UAUGAGCAAUAUUACGCGCU
- self-splicing fitness (ln) (30 °C): -3.68 ± 0.31
- self-splicing fitness (ln) (37 °C): -2.64 ± 0.28

Sequence: UACAAGCAAUAUUACGUUAA
- self-splicing fitness (ln) (30 °C): -3.35 ± 0.14
- self-splicing fitness (ln) (37 °C): -1.74 ± 0.092

Sequence: CUGUAGCAAUAUUACGGGGU
- self-splicing fitness (ln) (30 °C): -2.96 ± 0.34
- self-splicing fitness (ln) (37 °C): -2.82 ± 0.36

Sequence: GCAGAGCAAUAUUACGCGAG
- self-splicing fitness (ln) (30 °C): -3.58 ± 0.35
- self-splicing fitness (ln) (37 °C): -2.46 ± 0.28

Sequence: CCACAGCAAUAUUACGUGGU
- self-splicing fitness (ln) (30 °C): -4.13 ± 0.14
- self-splicing fitness (ln) (37 °C): -3.65 ± 0.17

Sequence: UCUCAGCAAUAUUACGAGCC
- self-splicing fitness (ln) (30 °C): -1.14 ± 0.19
- self-splicing fitness (ln) (37 °C): -1.68 ± 0.41

Sequence: AGUGAGCAAUAUUACGACAG
- self-splicing fitness (ln) (30 °C): -2.83 ± 0.33
- self-splicing fitness (ln) (37 °C): -1.67 ± 0.34

Sequence: CAGUAGCAAUAUUACGCACU
- self-splicing fitness (ln) (30 °C): -2.19 ± 0.18
- self-splicing fitness (ln) (37 °C): -1.34 ± 0.17

Sequence: CCUAAGCAAUAUUACGGUGC
- self-splicing fitness (ln) (30 °C): -2.79 ± 0.28
- self-splicing fitness (ln) (37 °C): -2.19 ± 0.32

Sequence: CGCUAGCAAUAUUACGACAA
- self-splicing fitness (ln) (30 °C): -2.04 ± 0.18
- self-splicing fitness (ln) (37 °C): -1.83 ± 0.2

Sequence: CUAUAGCAAUAUUACGGCGC
- self-splicing fitness (ln) (30 °C): -2.5 ± 0.28

Sequence: GGAUAGCAAUAUUACGACCC
- self-splicing fitness (ln) (30 °C): -0.96 ± 0.23

Sequence: CGUGAGCAAUAUUACGCUAG
- self-splicing fitness (ln) (30 °C): -2.9 ± 0.12
- self-splicing fitness (ln) (37 °C): -1.47 ± 0.21

Sequence: GGUAAGCAAUAUUACGCAAC
- self-splicing fitness (ln) (37 °C): -1.35 ± 0.38

Sequence: AAUGAGCAAUAUUACGCACA
- self-splicing fitness (ln) (30 °C): -2.31 ± 0.29
- self-splicing fitness (ln) (37 °C): -1.38 ± 0.2

Sequence: GGCCAGCAAUAUUACGCCCC
- self-splicing fitness (ln) (30 °C): -1.65 ± 0.17
- self-splicing fitness (ln) (37 °C): -0.851 ± 0.26

Sequence: UUCAAGCAAUAUUACGGCCG
- self-splicing fitness (ln) (30 °C): -0.747 ± 0.14
- self-splicing fitness (ln) (37 °C): 0.0541 ± 0.16

Sequence: CAGCAGCAAUAUUACGCCCC
- self-splicing fitness (ln) (30 °C): -1.87 ± 0.48
- self-splicing fitness (ln) (37 °C): -0.533 ± 0.43

Sequence: CGGAAGCAAUAUUACGACAC
- self-splicing fitness (ln) (37 °C): -1.66 ± 0.38

Sequence: AAACAGCAAUAUUACGCCGA
- self-splicing fitness (ln) (30 °C): -1.99 ± 0.087
- self-splicing fitness (ln) (37 °C): -1.35 ± 0.09

Sequence: CCACAGCAAUAUUACGCAUG
- self-splicing fitness (ln) (30 °C): -1.64 ± 0.073
- self-splicing fitness (ln) (37 °C): -0.648 ± 0.067
